Key:
[1] = target: T1, human neonatal Fc Receptor (FcRn) (human, UniProt P55899 24-297; P61769 21-119); experiment: bio-layer interferometry (Octet QKe), His-tagged FcRn captured on anti-Penta-His biosensors, pH 7.2, antibody range 500-15.6 nM, R2 0.9876; row head Kdis(1/s)
T1 construct: not shown: histidine tag

[2] = target: T1, human neonatal Fc Receptor (FcRn); experiment: bio-layer interferometry (Octet QKe) at pH 6.0; His-tagged FcRn on anti-Penta-His biosensor, antibody in solution
Experimental: (§1) Binding to recombinant human Fc receptors was measured by bio-layer interferometry using an Octet® QKe instrument. […] Curve fitting was performed using the instrument's analysis software. Binding to FcRn was performed with association and dissociation steps at pH 6.0 as well as pH 7.2.

[3] = target: T1, human neonatal Fc Receptor (FcRn); experiment: bio-layer interferometry (Octet QKe), His-tagged FcRn captured on anti-Penta-His biosensors, pH 6.0, antibody range 31.25-1.9 nM, R2 0.9869
Experimental: as §1

[4] = target: T1, human neonatal Fc Receptor (FcRn); experiment: bio-layer interferometry (Octet QKe), His-tagged FcRn captured on anti-Penta-His biosensors, pH 6.0, antibody range 31.25-1.9 nM, R2 0.9869; row head Kdis(1/s)
Experimental: as §1

[5] = target: T2, recombinant human FcγRIIb (human, UniProt P31994 46-217, limits assumed); experiment: bio-layer interferometry (Octet QKe); His-tagged receptor on anti-Penta-His biosensor, antibody in solution
T2 construct: Histidine-tagged recombinant receptor; not shown: histidine tag
T2 sequence (looked up): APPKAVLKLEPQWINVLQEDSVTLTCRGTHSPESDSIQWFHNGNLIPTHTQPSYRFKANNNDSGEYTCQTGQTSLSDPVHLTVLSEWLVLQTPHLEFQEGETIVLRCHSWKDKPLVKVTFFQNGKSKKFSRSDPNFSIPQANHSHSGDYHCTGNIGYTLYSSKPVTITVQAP

[6] = target: T3, recombinant human FcγRIIIb (human, UniProt O75015 17-200); experiment: as above
T3 construct: Histidine-tagged recombinant receptor; not shown: histidine tag

[7] = target: T4, recombinant human FcγRIIIa (human, UniProt P08637 17-208); experiment: as above
T4 construct: Histidine-tagged recombinant receptor; not shown: histidine tag

recombinant human FcγRI = target: T5, recombinant human FcγRI (human, UniProt P12314 16-288, limits assumed); experiment: as above
T5 construct: Histidine-tagged recombinant receptor captured on anti-Penta-His biosensors; also called Fc-gamma receptor I; not shown: histidine tag

[8] = target: T6, recombinant human FcγRIIa (human, UniProt P12318 36-218, limits assumed); experiment: as above
T6 construct: Histidine-tagged recombinant receptor; not shown: histidine tag
T6 sequence (looked up): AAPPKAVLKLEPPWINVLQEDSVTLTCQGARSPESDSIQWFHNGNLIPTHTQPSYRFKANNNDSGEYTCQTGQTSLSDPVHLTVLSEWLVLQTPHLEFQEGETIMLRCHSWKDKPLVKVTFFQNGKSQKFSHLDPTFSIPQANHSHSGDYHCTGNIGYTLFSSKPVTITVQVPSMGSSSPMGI

[9] = target: human KIT (wild-type KIT) (human, UniProt P10721 26-976); experiment: cell-based or functional assay
[10] = target: T1, human neonatal Fc Receptor (FcRn); experiment: bio-layer interferometry (Octet QKe) at pH 7.2; His-tagged FcRn on anti-Penta-His biosensor, antibody in solution
Experimental: as §1

[11] = target: T1, human neonatal Fc Receptor (FcRn); experiment: bio-layer interferometry (Octet QKe), His-tagged FcRn captured on anti-Penta-His biosensors, pH 7.2, antibody range 500-15.6 nM, R2 0.9876
Experimental: as §1

T4 sequence (P08637 17-208 limits assumed): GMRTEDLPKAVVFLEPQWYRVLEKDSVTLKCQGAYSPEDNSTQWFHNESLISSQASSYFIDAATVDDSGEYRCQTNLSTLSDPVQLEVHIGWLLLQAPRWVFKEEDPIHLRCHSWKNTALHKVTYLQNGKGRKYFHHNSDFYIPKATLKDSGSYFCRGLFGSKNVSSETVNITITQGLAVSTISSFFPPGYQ
Sequence of human KIT (wild-type KIT) (P10721 other isoform, or with tags, fused parts or gaps limits assumed): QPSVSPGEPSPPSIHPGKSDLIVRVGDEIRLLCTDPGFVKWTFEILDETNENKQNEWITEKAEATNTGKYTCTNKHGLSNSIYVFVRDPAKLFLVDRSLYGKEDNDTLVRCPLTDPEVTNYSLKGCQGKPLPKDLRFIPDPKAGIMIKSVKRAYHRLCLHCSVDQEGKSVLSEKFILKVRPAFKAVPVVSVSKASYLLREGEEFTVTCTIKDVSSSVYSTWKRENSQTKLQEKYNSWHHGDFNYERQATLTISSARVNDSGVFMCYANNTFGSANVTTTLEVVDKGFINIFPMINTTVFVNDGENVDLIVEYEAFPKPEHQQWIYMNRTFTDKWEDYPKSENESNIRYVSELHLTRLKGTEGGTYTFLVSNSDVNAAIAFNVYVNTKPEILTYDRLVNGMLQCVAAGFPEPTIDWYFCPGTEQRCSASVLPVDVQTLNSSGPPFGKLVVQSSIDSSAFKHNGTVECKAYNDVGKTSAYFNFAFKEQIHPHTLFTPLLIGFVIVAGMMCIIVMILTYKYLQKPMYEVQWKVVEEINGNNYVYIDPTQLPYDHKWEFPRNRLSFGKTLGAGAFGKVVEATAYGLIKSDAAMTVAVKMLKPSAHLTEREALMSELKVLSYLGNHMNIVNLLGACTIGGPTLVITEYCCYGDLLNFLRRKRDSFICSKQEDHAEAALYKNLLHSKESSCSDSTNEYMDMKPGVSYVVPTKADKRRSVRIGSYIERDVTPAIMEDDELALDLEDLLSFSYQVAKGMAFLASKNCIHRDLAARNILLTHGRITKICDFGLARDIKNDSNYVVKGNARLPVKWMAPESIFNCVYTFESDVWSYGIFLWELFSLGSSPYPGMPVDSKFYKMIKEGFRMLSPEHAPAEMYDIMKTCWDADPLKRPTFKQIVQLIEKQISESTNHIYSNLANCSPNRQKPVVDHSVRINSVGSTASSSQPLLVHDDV
T3 sequence (O75015 17-200 limits assumed): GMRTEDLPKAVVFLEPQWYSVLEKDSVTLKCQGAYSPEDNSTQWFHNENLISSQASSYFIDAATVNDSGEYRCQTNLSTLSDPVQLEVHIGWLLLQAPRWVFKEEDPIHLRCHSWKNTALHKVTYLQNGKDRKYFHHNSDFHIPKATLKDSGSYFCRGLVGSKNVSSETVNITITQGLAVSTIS
T5 sequence (P12314 16-288 limits assumed): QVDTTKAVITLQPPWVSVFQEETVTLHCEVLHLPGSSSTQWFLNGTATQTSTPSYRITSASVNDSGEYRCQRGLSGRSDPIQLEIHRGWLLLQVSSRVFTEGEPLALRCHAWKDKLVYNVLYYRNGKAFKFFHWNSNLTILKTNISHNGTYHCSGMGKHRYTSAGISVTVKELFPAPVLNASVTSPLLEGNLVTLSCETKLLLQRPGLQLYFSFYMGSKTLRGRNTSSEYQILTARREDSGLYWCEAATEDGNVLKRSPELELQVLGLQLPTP

koff [1]: 0.0807 s⁻¹ | Kd [2]: 380 pM | Kd [3]: 383 pM | kon [3]: 2e+06 M⁻¹ s⁻¹ | koff [4]: 0.000765 s⁻¹ | binding result [5]: no binding (tested: 500 nM) | binding result [6]: no binding (tested: 500 nM) | binding result [7]: no binding (tested: 500 nM) | binding result (recombinant human FcγRI): no binding (tested: 500 nM) | binding result [8]: no binding (tested: 500 nM) | mean IC50, inhibition of SCF-dependent M-07e cell proliferation [9]: 1110 pM | Kd [10]: 77100 pM | kon [11]: 1.05e+06 M⁻¹ s⁻¹
B1: mAb1 (antibody)
heavy: QVQLVQSGAEVKKPGASVKLSCKASGYTFTDYYINWVRQAPGKGLEWIARIYPGSGNTYYNEKFKGRATLTADKSTSTAYMQLSSLRSEDTAVYFCARGVYYFDYWGQGTTVTVSSASTKGPSVFPLAPSSKSTSGGTAALGCLVKDYFPEPVTVSWNSGALTSGVHTFPAVLQSSGLYSLSSVVTVPSSSLGTQTYICNVNHKPSNTKVDKKVEPKSCDKTHTCPPCPAPEAQGGPSVFLFPPKPKDTLYITREPEVTCVVVDVSHEDPEVKFNWYVDGVEVHNAKTKPREEQYNSTYRVVSVLTVLHQDWLNGKEYKCQVSNKALPAPIEKTISKAKGQPREPQVYTLPPSRDELTKNQVSLTCLVKGFYPSDIAVEWESNGQPENNYKTTPPVLDSDGSFFLYSKLTVDKSRWQQGNVFSCSVMHEALHNHYTQKSLSLSPG
light: DIVMTQSPSSLSASVGDRVTITCKASQNVRTNVAWYQQKPGKAPKALIYSASYRYSGVPDRFTGSGSGTDFTLTISSLQPEDFADYFCQQYNSYPRTFGGGTKVEIKRTVAAPSVFIFPPSDEQLKSGTASVVCLLNNFYPREAKVQWKVDNALQSGNSQESVTEQDSKDSTYSLSSTLTLSKADYEKHKVYACEVTHQGLSSPVTKSFNRGEC
notes: Expressed in CHO cells; also called anti-KIT antibody mAb1; Fc mutated anti-KIT antibody
